Non-standard residues stand in square brackets, D forms with d. No end group written: not given here. dPra = C#CC[C@@H](N)C(=O)O; dDap = NC[C@@H](N)C(=O)O
Key:
Experiment in all cases: cell-based or functional assay
[1] = target: cytosolic proteasome in HEK293 T cells
[2] = target: 20S core particle (CP) proteasome
[3] = target: 20S core particle (CP) proteasome; remark: listed apart in the source

| Binder | In-Cellulo (flow cytometry with epoxomicin probe, HEK293 T cells) [1] | TAS-1 (percent stimulation of 20S CP) [2] | EC50, dose-response of 20S CP stimulation [3] | Emax, dose-response of 20S CP stimulation [3] |
| --- | --- | --- | --- | --- |
| cyclo(T[dL]F[dF]R[dA]) (SMILES CC(C)C[C@H]1NC(=O)[C@H]([C@@H](C)O)NC(=O)[C@@H](C)NC(=O)[C@H](CCCNC(=N)N)NC(=O)[C@@H](Cc2ccccc2)NC(=O)[C@H](Cc2ccccc2)NC1=O) [CyPPS1] | 235 not printed | 340 % of DMSO | 6.4 µM | 283 |
| cyclo(T[dL]F[dF]R[dDap]) (SMILES CC(C)C[C@H]1NC(=O)[C@H]([C@@H](C)O)NC(=O)[C@@H](CN)NC(=O)[C@H](CCCNC(=N)N)NC(=O)[C@@H](Cc2ccccc2)NC(=O)[C@H](Cc2ccccc2)NC1=O) [CyPPS23] | 247 not printed | 352 % of DMSO | 4.1 µM | 391 |
| cyclo(T[dPra]F[dF]R[dA]) (SMILES C#CC[C@H]1NC(=O)[C@H]([C@@H](C)O)NC(=O)[C@@H](C)NC(=O)[C@H](CCCNC(=N)N)NC(=O)[C@@H](Cc2ccccc2)NC(=O)[C@H](Cc2ccccc2)NC1=O) [CyPPS14] | 231 not printed | 388 % of DMSO | 12.1 µM | 514 |
| cyclo(T[dV]F[dF]R[dA]) (SMILES CC(C)[C@H]1NC(=O)[C@H]([C@@H](C)O)NC(=O)[C@@H](C)NC(=O)[C@H](CCCNC(=N)N)NC(=O)[C@@H](Cc2ccccc2)NC(=O)[C@H](Cc2ccccc2)NC1=O) [CyPPS13] | 174 not printed | 422 % of DMSO | 4 µM | 394 |
| cyclo(V[dL]F[dF]R[dA]) (SMILES CC(C)C[C@H]1NC(=O)[C@H](C(C)C)NC(=O)[C@@H](C)NC(=O)[C@H](CCCNC(=N)N)NC(=O)[C@@H](Cc2ccccc2)NC(=O)[C@H](Cc2ccccc2)NC1=O) [CyPPS9] |  | 310 % of DMSO |  |  |
| TLFFRA (also: linear version of CyPPS1, D-residues not given here) [PPS1] | 83.7 not printed | 126 % of DMSO |  |  |
| cyclo(D[dL]F[dF]R[dA]) (SMILES CC(C)C[C@H]1NC(=O)[C@H](CC(=O)O)NC(=O)[C@@H](C)NC(=O)[C@H](CCCNC(=N)N)NC(=O)[C@@H](Cc2ccccc2)NC(=O)[C@H](Cc2ccccc2)NC1=O) [CyPPS8] | 161 not printed | 372 % of DMSO | 14.2 µM | 701 |
